Patent US20240400654A1
Where “and” joins values, the source holds several entries; their conditions need not be identical. Identical values can stand only once.

B1: KB001 mouse Fab VL A25Y (Fab, V domains shown)
VH: EVQLKQSGPGLVAPSQSLSITCTVSGFSLSIYSVHWVRQPPGKGLEWLGMIWGGGSSDYNSALKSRLSISKDNSKSQVFLKMNSLQTDDTAMYYCARNGNFYAMDYWGQGTSVTVSS
VL: QIVLTQSPAIMSASLGERVTMTCTYSSSVSSSFLHWYQQKPGSSPQLWIYSTSNLASGVPARFSGSGSGTSYSLTISSMEAEDAATYYCHQYHHSPYIYTFGGGTKLEIK
B2: KB001 mouse Fab VL S28H (Fab, V domains shown)
VH: EVQLKQSGPGLVAPSQSLSITCTVSGFSLSIYSVHWVRQPPGKGLEWLGMIWGGGSSDYNSALKSRLSISKDNSKSQVFLKMNSLQTDDTAMYYCARNGNFYAMDYWGQGTSVTVSS
VL: QIVLTQSPAIMSASLGERVTMTCTASSHVSSSFLHWYQQKPGSSPQLWIYSTSNLASGVPARFSGSGSGTSYSLTISSMEAEDAATYYCHQYHHSPYIYTFGGGTKLEIK
B3: KB001 mouse Fab VL S27N (Fab, V domains shown)
VH: EVQLKQSGPGLVAPSQSLSITCTVSGFSLSIYSVHWVRQPPGKGLEWLGMIWGGGSSDYNSALKSRLSISKDNSKSQVFLKMNSLQTDDTAMYYCARNGNFYAMDYWGQGTSVTVSS
VL: QIVLTQSPAIMSASLGERVTMTCTASNSVSSSFLHWYQQKPGSSPQLWIYSTSNLASGVPARFSGSGSGTSYSLTISSMEAEDAATYYCHQYHHSPYIYTFGGGTKLEIK
B4: KB001 mouse Fab VL S27L (Fab, V domains shown)
VH: EVQLKQSGPGLVAPSQSLSITCTVSGFSLSIYSVHWVRQPPGKGLEWLGMIWGGGSSDYNSALKSRLSISKDNSKSQVFLKMNSLQTDDTAMYYCARNGNFYAMDYWGQGTSVTVSS
VL: QIVLTQSPAIMSASLGERVTMTCTASLSVSSSFLHWYQQKPGSSPQLWIYSTSNLASGVPARFSGSGSGTSYSLTISSMEAEDAATYYCHQYHHSPYIYTFGGGTKLEIK
B5: KB001 mouse Fab VL A25G (Fab, V domains shown)
VH: EVQLKQSGPGLVAPSQSLSITCTVSGFSLSIYSVHWVRQPPGKGLEWLGMIWGGGSSDYNSALKSRLSISKDNSKSQVFLKMNSLQTDDTAMYYCARNGNFYAMDYWGQGTSVTVSS
VL: QIVLTQSPAIMSASLGERVTMTCTGSSSVSSSFLHWYQQKPGSSPQLWIYSTSNLASGVPARFSGSGSGTSYSLTISSMEAEDAATYYCHQYHHSPYIYTFGGGTKLEIK
B6: KB001 mouse Fab VL S27H (Fab, V domains shown)
VH: EVQLKQSGPGLVAPSQSLSITCTVSGFSLSIYSVHWVRQPPGKGLEWLGMIWGGGSSDYNSALKSRLSISKDNSKSQVFLKMNSLQTDDTAMYYCARNGNFYAMDYWGQGTSVTVSS
VL: QIVLTQSPAIMSASLGERVTMTCTASHSVSSSFLHWYQQKPGSSPQLWIYSTSNLASGVPARFSGSGSGTSYSLTISSMEAEDAATYYCHQYHHSPYIYTFGGGTKLEIK
B7: KB001 mouse Fab VL S28D (Fab, V domains shown)
VH: EVQLKQSGPGLVAPSQSLSITCTVSGFSLSIYSVHWVRQPPGKGLEWLGMIWGGGSSDYNSALKSRLSISKDNSKSQVFLKMNSLQTDDTAMYYCARNGNFYAMDYWGQGTSVTVSS
VL: QIVLTQSPAIMSASLGERVTMTCTASSDVSSSFLHWYQQKPGSSPQLWIYSTSNLASGVPARFSGSGSGTSYSLTISSMEAEDAATYYCHQYHHSPYIYTFGGGTKLEIK
B8: KB001 mouse Fab VL A25P (Fab, V domains shown)
VH: EVQLKQSGPGLVAPSQSLSITCTVSGFSLSIYSVHWVRQPPGKGLEWLGMIWGGGSSDYNSALKSRLSISKDNSKSQVFLKMNSLQTDDTAMYYCARNGNFYAMDYWGQGTSVTVSS
VL: QIVLTQSPAIMSASLGERVTMTCTPSSSVSSSFLHWYQQKPGSSPQLWIYSTSNLASGVPARFSGSGSGTSYSLTISSMEAEDAATYYCHQYHHSPYIYTFGGGTKLEIK
B9: KB001 mouse Fab VL S28N (Fab, V domains shown)
VH: EVQLKQSGPGLVAPSQSLSITCTVSGFSLSIYSVHWVRQPPGKGLEWLGMIWGGGSSDYNSALKSRLSISKDNSKSQVFLKMNSLQTDDTAMYYCARNGNFYAMDYWGQGTSVTVSS
VL: QIVLTQSPAIMSASLGERVTMTCTASSNVSSSFLHWYQQKPGSSPQLWIYSTSNLASGVPARFSGSGSGTSYSLTISSMEAEDAATYYCHQYHHSPYIYTFGGGTKLEIK
B10: KB001 mouse Fab VL S27Y (Fab, V domains shown)
VH: EVQLKQSGPGLVAPSQSLSITCTVSGFSLSIYSVHWVRQPPGKGLEWLGMIWGGGSSDYNSALKSRLSISKDNSKSQVFLKMNSLQTDDTAMYYCARNGNFYAMDYWGQGTSVTVSS
VL: QIVLTQSPAIMSASLGERVTMTCTASYSVSSSFLHWYQQKPGSSPQLWIYSTSNLASGVPARFSGSGSGTSYSLTISSMEAEDAATYYCHQYHHSPYIYTFGGGTKLEIK
B11: KB001 mouse Fab VL S27V (Fab, V domains shown)
VH: EVQLKQSGPGLVAPSQSLSITCTVSGFSLSIYSVHWVRQPPGKGLEWLGMIWGGGSSDYNSALKSRLSISKDNSKSQVFLKMNSLQTDDTAMYYCARNGNFYAMDYWGQGTSVTVSS
VL: QIVLTQSPAIMSASLGERVTMTCTASVSVSSSFLHWYQQKPGSSPQLWIYSTSNLASGVPARFSGSGSGTSYSLTISSMEAEDAATYYCHQYHHSPYIYTFGGGTKLEIK
B12: KB001 mouse Fab VL S27K/S68Y (Fab, V domains shown)
VH: EVQLKQSGPGLVAPSQSLSITCTVSGFSLSIYSVHWVRQPPGKGLEWLGMIWGGGSSDYNSALKSRLSISKDNSKSQVFLKMNSLQTDDTAMYYCARNGNFYAMDYWGQGTSVTVSS
VL: QIVLTQSPAIMSASLGERVTMTCTASKSVSSSFLHWYQQKPGSSPQLWIYSTSNLASGVPARFSGSGYGTSYSLTISSMEAEDAATYYCHQYHHSPYIYTFGGGTKLEIK
B13: KB001 mouse Fab VL A25V (Fab, V domains shown)
VH: EVQLKQSGPGLVAPSQSLSITCTVSGFSLSIYSVHWVRQPPGKGLEWLGMIWGGGSSDYNSALKSRLSISKDNSKSQVFLKMNSLQTDDTAMYYCARNGNFYAMDYWGQGTSVTVSS
VL: QIVLTQSPAIMSASLGERVTMTCTVSSSVSSSFLHWYQQKPGSSPQLWIYSTSNLASGVPARFSGSGSGTSYSLTISSMEAEDAATYYCHQYHHSPYIYTFGGGTKLEIK
B14: KB001 mouse Fab VL S27M (Fab, V domains shown)
VH: EVQLKQSGPGLVAPSQSLSITCTVSGFSLSIYSVHWVRQPPGKGLEWLGMIWGGGSSDYNSALKSRLSISKDNSKSQVFLKMNSLQTDDTAMYYCARNGNFYAMDYWGQGTSVTVSS
VL: QIVLTQSPAIMSASLGERVTMTCTASMSVSSSFLHWYQQKPGSSPQLWIYSTSNLASGVPARFSGSGSGTSYSLTISSMEAEDAATYYCHQYHHSPYIYTFGGGTKLEIK
B15: KB001 mouse Fab VL S26T (Fab, V domains shown)
VH: EVQLKQSGPGLVAPSQSLSITCTVSGFSLSIYSVHWVRQPPGKGLEWLGMIWGGGSSDYNSALKSRLSISKDNSKSQVFLKMNSLQTDDTAMYYCARNGNFYAMDYWGQGTSVTVSS
VL: QIVLTQSPAIMSASLGERVTMTCTATSSVSSSFLHWYQQKPGSSPQLWIYSTSNLASGVPARFSGSGSGTSYSLTISSMEAEDAATYYCHQYHHSPYIYTFGGGTKLEIK
B16: KB001 mouse Fab VL S28T/S12R (Fab, V domains shown)
VH: EVQLKQSGPGLVAPSQSLSITCTVSGFSLSIYSVHWVRQPPGKGLEWLGMIWGGGSSDYNSALKSRLSISKDNSKSQVFLKMNSLQTDDTAMYYCARNGNFYAMDYWGQGTSVTVSS
VL: QIVLTQSPAIMRASLGERVTMTCTASSTVSSSFLHWYQQKPGSSPQLWIYSTSNLASGVPARFSGSGSGTSYSLTISSMEAEDAATYYCHQYHHSPYIYTFGGGTKLEIK
B17: KB001 mouse Fab VL S28M (Fab, V domains shown)
VH: EVQLKQSGPGLVAPSQSLSITCTVSGFSLSIYSVHWVRQPPGKGLEWLGMIWGGGSSDYNSALKSRLSISKDNSKSQVFLKMNSLQTDDTAMYYCARNGNFYAMDYWGQGTSVTVSS
VL: QIVLTQSPAIMSASLGERVTMTCTASSMVSSSFLHWYQQKPGSSPQLWIYSTSNLASGVPARFSGSGSGTSYSLTISSMEAEDAATYYCHQYHHSPYIYTFGGGTKLEIK
B18: KB001 mouse Fab VL S27W (Fab, V domains shown)
VH: EVQLKQSGPGLVAPSQSLSITCTVSGFSLSIYSVHWVRQPPGKGLEWLGMIWGGGSSDYNSALKSRLSISKDNSKSQVFLKMNSLQTDDTAMYYCARNGNFYAMDYWGQGTSVTVSS
VL: QIVLTQSPAIMSASLGERVTMTCTASWSVSSSFLHWYQQKPGSSPQLWIYSTSNLASGVPARFSGSGSGTSYSLTISSMEAEDAATYYCHQYHHSPYIYTFGGGTKLEIK
B19: KB001 mouse Fab VL A25E (Fab, V domains shown)
VH: EVQLKQSGPGLVAPSQSLSITCTVSGFSLSIYSVHWVRQPPGKGLEWLGMIWGGGSSDYNSALKSRLSISKDNSKSQVFLKMNSLQTDDTAMYYCARNGNFYAMDYWGQGTSVTVSS
VL: QIVLTQSPAIMSASLGERVTMTCTESSSVSSSFLHWYQQKPGSSPQLWIYSTSNLASGVPARFSGSGSGTSYSLTISSMEAEDAATYYCHQYHHSPYIYTFGGGTKLEIK
B20: KB001 mouse Fab VL S26P (Fab, V domains shown)
VH: EVQLKQSGPGLVAPSQSLSITCTVSGFSLSIYSVHWVRQPPGKGLEWLGMIWGGGSSDYNSALKSRLSISKDNSKSQVFLKMNSLQTDDTAMYYCARNGNFYAMDYWGQGTSVTVSS
VL: QIVLTQSPAIMSASLGERVTMTCTAPSSVSSSFLHWYQQKPGSSPQLWIYSTSNLASGVPARFSGSGSGTSYSLTISSMEAEDAATYYCHQYHHSPYIYTFGGGTKLEIK
B21: KB001 mouse Fab VL S26G (Fab, V domains shown)
VH: EVQLKQSGPGLVAPSQSLSITCTVSGFSLSIYSVHWVRQPPGKGLEWLGMIWGGGSSDYNSALKSRLSISKDNSKSQVFLKMNSLQTDDTAMYYCARNGNFYAMDYWGQGTSVTVSS
VL: QIVLTQSPAIMSASLGERVTMTCTAGSSVSSSFLHWYQQKPGSSPQLWIYSTSNLASGVPARFSGSGSGTSYSLTISSMEAEDAATYYCHQYHHSPYIYTFGGGTKLEIK

target: HRgpA-6H (Porphyromonas gingivalis) (UniProt P28784); experiment: ELISA, coated HRgpA-6H
Sequence of UniProt P28784 (P28784 228-860 limits assumed): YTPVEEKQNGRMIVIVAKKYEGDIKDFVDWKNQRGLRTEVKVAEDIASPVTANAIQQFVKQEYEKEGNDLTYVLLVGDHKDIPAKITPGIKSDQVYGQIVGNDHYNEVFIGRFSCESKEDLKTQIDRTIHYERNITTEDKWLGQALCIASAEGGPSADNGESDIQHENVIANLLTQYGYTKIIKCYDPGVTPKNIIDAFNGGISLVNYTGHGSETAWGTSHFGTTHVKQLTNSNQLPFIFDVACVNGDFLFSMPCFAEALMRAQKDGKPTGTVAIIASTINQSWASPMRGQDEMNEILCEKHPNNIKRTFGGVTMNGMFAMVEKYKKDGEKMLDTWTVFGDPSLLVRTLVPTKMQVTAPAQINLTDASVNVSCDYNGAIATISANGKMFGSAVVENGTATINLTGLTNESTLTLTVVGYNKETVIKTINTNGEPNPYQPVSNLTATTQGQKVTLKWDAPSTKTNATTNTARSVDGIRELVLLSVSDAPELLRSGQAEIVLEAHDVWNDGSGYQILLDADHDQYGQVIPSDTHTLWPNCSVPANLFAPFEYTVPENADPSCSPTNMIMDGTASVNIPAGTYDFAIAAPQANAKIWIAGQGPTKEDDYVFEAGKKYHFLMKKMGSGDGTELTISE

Binder | OD450 nm | Ratio OD(Variant)/OD(WT)
B1 | 0.755 and 0.757 | 0.964 and 0.967
B2 | 0.719 | 0.958
B3 | 0.675 and 0.724 and 0.64 | 0.899 and 0.965 and 0.853
B4 | 0.649 | 0.865
B5 | 0.668 and 0.699 and 0.673 | 0.853 and 0.893 and 0.86
B6 | 0.664 and 0.63 and 0.726 | 0.885 and 0.839 and 0.967
B7 | 0.745 and 0.722 | 0.993 and 0.962
B8 | 0.742 and 0.766 and 0.749 | 0.948 and 0.978 and 0.957
B9 | 0.743 | 0.99
B10 | 0.617 | 0.822
B11 | 0.645 and 0.646 | 0.859 and 0.861
B12 | 0.736 | 0.981
B13 | 0.768 | 0.981
B14 | 0.709 | 0.945
B15 | 0.761 | 0.972
B16 | 0.747 | 0.995
B17 | 0.706 and 0.675 | 0.941 and 0.899
B18 | 0.601 | 0.801
B19 | 0.655 | 0.837
B20 | 0.644 and 0.677 | 0.822 and 0.865
B21 | 0.73 | 0.932
